In this test the target is T1, GLUT1 (Homo sapiens), P11166.
T1 chain: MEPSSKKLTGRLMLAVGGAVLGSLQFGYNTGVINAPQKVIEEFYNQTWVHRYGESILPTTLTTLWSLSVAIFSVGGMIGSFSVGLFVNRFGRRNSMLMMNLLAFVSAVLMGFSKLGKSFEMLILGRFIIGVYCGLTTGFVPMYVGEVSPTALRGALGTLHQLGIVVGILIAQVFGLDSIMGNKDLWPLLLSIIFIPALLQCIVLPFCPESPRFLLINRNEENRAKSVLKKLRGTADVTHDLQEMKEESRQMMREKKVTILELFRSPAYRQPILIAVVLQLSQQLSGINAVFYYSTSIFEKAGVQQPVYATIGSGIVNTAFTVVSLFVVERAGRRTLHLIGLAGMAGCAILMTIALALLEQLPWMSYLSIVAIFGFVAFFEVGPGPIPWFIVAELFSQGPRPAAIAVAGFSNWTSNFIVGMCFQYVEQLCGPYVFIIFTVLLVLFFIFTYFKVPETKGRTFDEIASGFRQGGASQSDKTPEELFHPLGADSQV
Briefly: ITC. Conditions: PIP2/MSP1E3 nanodisc; remark: other sources report otherwise.

B1: TXNIP, Q9H3M7 (protein)
chain: MVMFKKIKSFEVVFNDPEKVYGSGEKVAGRVIVEVCEVTRVKAVRILACGVAKVLWMQGSQQCKQTSEYLRYEDTLLLEDQPTGENEMVIMRPGNKYEYKFGFELPQGPLGTSFKGKYGCVDYWVKAFLDRPSQPTQETKKNFEVVDLVDVNTPDLMAPVSAKKEKKVSCMFIPDGRVSVSARIDRKGFCEGDEISIHADFENTCSRIVVPKAAIVARHTYLANGQTKVLTQKLSSVRGNHIISGTCASWRGKSLRVQKIRPSILGCNILRVEYSLLIYVSVPGSKKVILDLPLVIGSRSGLSSRTSSMASRTSSEMSWVDLNIPDTPEAPPCYMDVIPEDHRLESPTTPLLDDMDGSQDSPIFMYAPEFKFMPPPTYTEVDPCILNNNVQ
The molecule B1 had a Kd of 3.8 µM. In other words, the single-digit micromolar range.

The Kd is the concentration at which binding is half-saturated. Read a low Kd as a tighter complex.

Values taken from publication PMC8464517.
